Laboratory results: paper PMC12216130, “Structural basis for the interaction between the bacterial cell division proteins FtsZ and ZapA” (Nature Communications, 2025)

Biological target: the molecule itself
Experiment: cryo-EM structure; 7.4 uM KpFtsZ, 14.9 uM KpZapA (2x molar excess), 0.6 mM GMPCPP, 17 mM HEPES pH 7.5, 8.6 mM NaCl, 60 mM KCl, 3 mM MgCl2, on ice 15 min; helical refinement to 2.73 A; same data re-analysed with the focus on ZapA (3.89 and 4.27 A maps, 2D classes)

B1: K. pneumoniae FtsZ (natural protein, UniProt W9BCK7 1-383, looked up)
chain: MFEPMELTNDAVIKVIGVGGGGGNAVEHMVRERIEGVEFFAVNTDAQALRKTAVGQTIQIGSGITKGLGAGANPEVGRNAADEDREALRAALDGADMVFIAAGMGGGTGTGAAPVVAEVAKDLGILTVAVVTKPFNFEGKKRMAFAEQGITELSKHVDSLITIPNDKLLKVLGRGISLLDAFGAANDVLKGAVQGIAELITRPGLMNVDFADVRTVMSEMGYAMMGSGVASGEDRAEEAAEMAISSPLLEDIDLSGARGVLVNITAGFDLRLDEFETVGNTIRAFASDNATVVIGTSLDPDMNDELRVTVVATGIGMDKRPEITLVTNKQVQQPVMDRYQQHGMSPLTQEQKPAAKVVNDNTPQTAKEPDYLDIPAFLRKQAD
notes: polymerised into protofilaments with GMPCPP, GTP or GMPPNP in the assays; also called KpFtsZ; wild-type FtsZ
B1: binds.

B2: K. pneumoniae ZapA (natural protein)
chain: MSAQPVDLQIFGRSLRVNCPPEQRDALNQAAEDLNQRLQDLKERTRVTNTEQLVFIAALNISYELTQEKAKTRDYASSMEQRIRMLQQTIEQALLEQGRISE
notes: ZapA of Klebsiella pneumoniae; synthetic gene codon-optimised for E. coli in pColdI-TEV; Tetramer in the structures; also called KpZapA; source: E. coli, purified (HisTrap, TEV cleavage, second HisTrap, Superdex200 SEC); not shown: His6, N-terminal, cleaved
B2 was tested, and the “stoichiometry N” value was 4.
